“Also recorded” adds a separate entry of the source.
Tests used:
[1] = In vitro Mdh activity in crude cell extracts of recombinant E. coli; format: biochemical; conditions: −Act, expressed in E. coli, crude cell extract
Excerpt: (§1) The genes coding for Mdh and the Mdh activator protein Act were amplified from pET21a-plasmids harboring genes from B. methanolicus strains MGA3 (mdh-MGA3, mdh2-MGA3, mdh3-MGA3 and act-MGA3) and PB1 (mdh-PB1, mdh1-PB1 and mdh2-PB1). The genes were then cloned either into the pSEVA424 plasmid (mdh genes) or in the pSEVA131 plasmid (act gene). For cloning of mdh-MGA3, mdh-PB1, mdh1-PB1 and act-MGA3, EcoRI and HindIII restrictions sites were used, while mdh2-MGA3, mdh2-PB1 and mdh3-MGA3 were cloned by using EcoRI and PstI restriction sites. The resulting expression vectors were transformed into electrocompetent wt E. coli K-12 (BW25113) and into E. coli K-12 (BW25113) with a deleted frmA gene.
(§2) Expression Experiments For expression experiments, the cells were cultivated in either Luria-Bertani (LB) medium for in vitro assays or in M9 medium for in vivo assays both containing 20 μg/ml streptomycin for pSEVA424. When Act was co-expressed the medium was supplemented with 100 μg/ml ampicillin. Expression was induced when cells reached OD 0.5 (for in vitro tests) or OD 1 (for in vivo tests) by adding 0.1 mM IPTG (final concentration) for 6 hours. Cells were then harvested by centrifugation. For in vitro assays, crude cell extract was prepared by lysing the cells in a French press following ultracentrifugation. Alternatively, cells were resuspended in M9-medium without glucose for in vivo activity measurements. Enzyme Assays
In vitro measurements of Mdh activity: For determination of Mdh activity in crude cell extracts, the Mdh dependent formation of NADH was monitored at 340 nm. The assays were performed either at 37° C. or 45° C. in prewarmed buffer solutions. The Mdh assay contained 10-20 μg enzyme, 50 mM K2HPO4-buffer, pH7.4, 2.5 mM MgCl and 0.5 mM of NAD^+ (final concentrations). After 5 min of preincubation, the reaction was started with 1 M of methanol (final concentration).

[2] = Heat stability: pre-incubation of purified MDHs at 45° C. or 60° C. prior to the enzyme assay; format: biochemical; conditions: preincubation at 60° C.; compared to the remaining MDHs
Method: FIG. 5. (A) Temperature stability of MGA3 Mdh, Mdh2 and Mdh3 was tested in vitro. Enzymes were incubated at 45° C. or at 60° C. prior to the enzyme assay. (B) Temperature stability of PB1 Mdh, Mdh1 and Mdh2 was tested in vitro. Enzymes were incubated at 45° C. or at 60° C. prior to the enzyme assay.
The heat stability of the six MDHs was tested by pre-incubation of the proteins at 45° C. and 60° C. and samples were taken at different time points for enzyme assays. As expected, all enzymes retained essentially all catalytic activity upon preincubations at 45° C. (FIG. 5). […] A selection of the experiments was repeated in the presence of equal amounts of purified Act, and this had no effect on temperature stability for any of the MDHs (data not shown).

[3] = Substrate specificity of purified MDH proteins on alternative alcohols; format: biochemical; conditions: all alternative alcohol substrates
Method: FIG. 3. Catalytic activities of purified Mdh (black), Mdh2 (dark grey) and Mdh3 (light grey) on various alcohols (200 mM) tested in vitro. (A) Substrate specificity was analysed for MDHs from B. methanolicus MGA3 in vitro. Alcohol substrates were used at concentrations of 500 mM except for pentanol (300 mM) and hexanol (50 mM). The data were calculated from the mean value from two experiments which were done in triplicate. (B) Substrate specificity for MDHs from B. methanolicus PB1 was analysed in vitro. Alcohol substrates were used at concentrations of 500 mM except for pentanol (300 mM) and hexanol (50 mM). The data were calculated from the mean value from two experiments which were done in triplicate.
Alcohol dehydrogenase activities were measured spectrophotometrically essentially as described previously (Hektor, Kloosterman et al. (2002) Chem 277(49): 46966-46973) and the reaction mixture contained: 100 mM Glycine-KOH pH 9.5 (unless otherwise stated), 5 mM MgSO4, 0.5 mM NAD^+ and 500 mM alcohol (methanol, ethanol, propanol, 1,3-propanediol, or butanol). NAD^+ was substituted with equal concentrations of NADP^+, FMN^+, and FAD^+, when indicated. […] The reactions were started by addition of 5-40 μg of the purified MDH proteins, and the production of NADH was monitored at 340 nm for 4 minutes. […]

[4] = In vivo Mdh activity in cell suspensions of recombinant E. coli (formaldehyde accumulating in supernatant); format: cell-based; conditions: 37° C., −Act; E. coli cell suspension
Excerpt: as §1, §2
In vivo measurements of Mdh activity: For determination of Mdh activity in cell suspensions, cells were harvested after IPTG induction, washed and resuspended in M9-medium without glucose and IPTG. OD600 was set to 1 for normalization. […] The assay was started by addition of 1 M methanol and subsequent measurement of accumulating formaldehyde in the supernatant resulting from the methanol dehydrogenase catalyzed oxidation of methanol. The calculated activities were based on the assumption that 1 l of an OD1 culture contains 0.3 g biomass of which 50% is protein.

[5] = Formaldehyde reductase assay of purified MDH proteins; format: biochemical; conditions: 45° C., formaldehyde reductase activity
Method: (§3) Alcohol dehydrogenase activities were measured spectrophotometrically essentially as described previously (Hektor, Kloosterman et al. (2002) Chem 277(49): 46966-46973) and the reaction mixture contained: 100 mM Glycine-KOH pH 9.5 (unless otherwise stated), 5 mM MgSO4, 0.5 mM NAD^+ and 500 mM alcohol (methanol, ethanol, propanol, 1,3-propanediol, or butanol). NAD^+ was substituted with equal concentrations of NADP^+, FMN^+, and FAD^+, when indicated. The reaction mixture for measurements of formaldehyde reductase activity contained: 50 mM Potassium-phosphate buffer pH=6.7, 0.15 mM NADH, 1 mM DTT and 11.6 mM (0.1-116 mM) formaldehyde. The assay components were mixed in the cuvette and pre-warmed to 45° C., unless otherwise stated. The reactions were started by addition of 5-40 μg of the purified MDH proteins, and the production of NADH was monitored at 340 nm for 4 minutes. One unit of MDH activity was defined as the amount of enzyme needed to produce 1 μmol NADH per minute under the conditions described above. Purified Act (0.1-40 μg) or NudF (20 μg) proteins were added to the reaction mixtures as indicated in the text.
(§4) The purified MDH and Act proteins (20 μg) were used in the kinetic experiments performing the methanol dehydrogenase and the formaldehyde dehydrogenase assays essentially as described above. […] For determination of the Km for NAD^+ (Km,NAD+) and Vmax, the methanol concentration was kept constant at a saturating level (500 mM), while the concentration of NAD^+ was varied (5-1000 μM). […] Act (20 μg) was added to the reaction mixtures for determination of Kμ,MεOH and Vmax values in the presence of this activator, as indicated in the text. In general, the slopes of activity versus time were linear in the measured period (data not shown). Km and Vmax values were calculated by using nonlinear regression with the Microsoft Excel solver-tool to fit the measured data to the Michaelis-Menten equation, as described previously (Jakobsen et al., (2009) Appl Environ Microbiol 75(3): 652-661). The values obtained from the regression were then compared to the values obtained from Lineweaver-Burk and Hanes-Woolf plots to ensure that the global minimum, not a local minimum, had been found.

[6] = Methanol dehydrogenase assay of purified recombinant MDH proteins (NADH production at 340 nm); format: biochemical
Method: as §3, §4

B1: Mdh2-PB1: NAD-dependent methanol dehydrogenase encoded by chromosomal gene mdh2-PB1 of B. methanolicus PB1, SEQ ID NO. 6 (protein)
chain: MTNTQSIFYIPSVNLFGPGSVNEVGTRLAGLGVKKALLVTDAGLHGLGLSEKIASIIREAGVEVLIFPKAEPNPTDKNVAEGLEVYNAENCDSIVTLGGGSSHDAGKGIALVAANGGTIYDYEGVDKSKKPMVPLIAINTTAGTGSELTRFTIITDTERKVKMAIVDKHVTPTLSINDPELMVGMPPSLTAATGLDALTHAIEAYVSTAATPITDALAIQAIKIISKYLPRAFANGKDMEAREQMAFAQSLAGMAFNNASLGYVHAIAHQFGGFYNFPHGVCNAILLPHVCRFNLISKVERFAEIAALLGENVAGLSTREAAEKGIKAIERMAKDLNIPRGFKELGAKEEDIVTLAENAMKDATALTNPRKPKLEEVIQIIKNAM
modifications: Bacillus methanolicus PB1
In the case of B1, the In vitro activity ([1]; 37° C.) is reported as 33 mU/mg, the In vitro activity ([1]; 45° C.) is reported as 103 mU/mg and the “temperature stability in vitro (in words)” value [2] is reported as “Higher Temperature Stabilities; also recorded: only moderate negative effects; also recorded: improved thermostability”. The “catalytic activity on alternative alcohols compared with the remaining MDHs” value [3] was “significantly higher catalytic activity than the remaining enzymes”, the In vivo activity [4] was 3 mU/mg and the “Vmax, variable substrate Formaldehyde” value [5] was 1.12 U/mg. For the same molecule, the Km ([5]; read-out: Km, variable substrate Formaldehyde) was 1.3 mM, the “Vmax, variable substrate Methanol + Act” value ([6]; 45° C., pH 9.5, 20 μg MDH + 20 μg Act) was 0.24 U/mg and the Km ([6]; 45° C., pH 9.5, 20 μg MDH + 20 μg Act, read-out: Km, variable substrate Methanol + Act) was 36 mM. For the same molecule, the “Vmax, variable substrate Methanol” value ([6]; 45° C., pH 9.5, absence of Act) was 0.065 U/mg and the “reduction of Km,MeOH in the presence of Act” value ([6]; Act added vs. no Act) was 4 fold.
